Test results: patent US20220064302A1 (GIGAGEN, published 2022)

Columns and labels:
[1] = target: T1, human PD-1 (soluble PD-1 protein, R&D Systems) (human, UniProt Q15116 25-170, limits assumed); assay: BLI (Octet Red96), mAb on AHC biosensor, PD-1 as analyte
T1 construct: the kinetics paragraphs say only 'PD-1' / 'antigen'; also called hPD-1; soluble PD-1 immunogen
Procedure: For BLI, antibodies were loaded onto an Anti-Human IgG Fc (AHC) biosensor using the Octet Red96 system (ForteBio). Loaded biosensors were dipped into antigen dilutions beginning at 300 nM, with 6 serial dilutions at 1:3. Kinetic analysis was performed using a 1:1 binding model and global fitting.

PD-1 expressed on cells = target: T2, PD-1 expressed on cells (human, UniProt Q15116 25-288); assay: flow cytometry on PD-1 expressing Flp-In CHO cells
T2 construct: also called PD-1 expressed in CHO cells
T2 sequence (Q15116 25-288 limits assumed): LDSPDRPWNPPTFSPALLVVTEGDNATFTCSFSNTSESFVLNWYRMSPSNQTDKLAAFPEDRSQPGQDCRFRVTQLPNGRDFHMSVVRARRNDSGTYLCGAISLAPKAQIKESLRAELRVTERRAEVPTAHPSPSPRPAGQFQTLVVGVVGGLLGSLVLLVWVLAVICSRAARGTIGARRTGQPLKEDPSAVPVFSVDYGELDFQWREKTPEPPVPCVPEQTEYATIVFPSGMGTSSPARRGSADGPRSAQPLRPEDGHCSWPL

T1 sequence (Q15116 25-170 limits assumed): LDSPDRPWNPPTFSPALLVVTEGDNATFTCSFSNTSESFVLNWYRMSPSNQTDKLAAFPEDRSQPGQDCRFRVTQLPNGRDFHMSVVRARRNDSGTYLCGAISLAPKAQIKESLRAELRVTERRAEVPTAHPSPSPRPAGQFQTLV

B1: A14 (antibody, V domains shown)
VH: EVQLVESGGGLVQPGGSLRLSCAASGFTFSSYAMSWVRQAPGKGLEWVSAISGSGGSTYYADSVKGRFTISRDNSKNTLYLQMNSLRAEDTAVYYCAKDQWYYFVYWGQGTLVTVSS
VL: DIQMTQSPSSLSASVGDRVTITCRASQGIRNDLGWYQQKPGKAPKRLIYVASSLQSGVPSRFSGSGSGTEFTLTISSLQPEDFATYYCLQHNSYPLTFGGGTKVEIK
notes: Tested as full-length mAb expressed in CHO cells; also called antibody 14; L14H14
binding result [1]: no binding (tested: antigen dilutions beginning at 300 nM) | binding result (PD-1 expressed on cells): binds
